Measured values as given in US20140011732A1 (Novo Nordisk, published 2014).
Starred links: 1 amine or outer side, 2 acyl side, 3 side chain; linkers in the order of their positions; H or OH if unused. Non-standard residues stand in square brackets, D forms with d. Groups on a side chain read outwards from the residue. No end group written: not given here. *: point of attachment. C18 diacid = O=C(O)CCCCCCCCCCCCCCCCC(=O)*; d(βAsp) = O=C(O)[C@@H](CC(=O)[*:2])N[*:1]; 2Nal = N[C@@H](Cc1ccc2ccccc2c1)C(=O)O; AEEA = NCCOCCOCC(=O)O; Aib = CC(C)(N)C(=O)O; Inp = O=C(O)C1CCNCC1

B1: N-alpha37-[2-(2-{2-[2-(2-{2-[(S)-4-Carboxy-4-({trans-4-[(19-carboxynonadecanoylamino)methyl]cyclohexanecarbonyl}amino)butyrylamino]ethoxy}ethoxy)acetylamino]eth … (peptide)
peptide: HAEGTFTSDVSSYLEEQAAREFIAWLVRGRK
modifications: desaminoHis7; Lys37 is bound to the peptide via its epsilon amino group (epsilon-Lys37); its N-alpha carries the acyl side chain printed in the name
B2: N-epsilon20-[2-(2-{2-[(S)-4-Carboxy-4-((S)-4-carboxy-4-{12-[4-(16-(1H-tetrazol-5-yl)hexadecanoylsulfamoyl)butyrylamino]dodecanoylamino}butyrylamino)butyrylamino … (peptide)
peptide: HAEGTFTSDVSSYKEEQAAREFIEWLVKGRP
modifications: Aib8; Lys20 N-epsilon carries the acyl side chain printed in the name; C-terminal amide
B3: N-epsilon26-[2-(2-[2-(2-[2-(2-((R)-3-[trans-4-((9-Carboxynonadecanoylamino]methyl)cyclohexylcarbonylamino]3-carboxypropionylamino)ethoxy)ethoxy]acetylamino)etho … (peptide)
peptide: H[Aib]EGTFTSDVSSYLEEQAAKEFIAWLVQGRG
modifications: not fully specified (residue 20); printed as N-epsilon26-[2-(2-[2-(2-[2-(2-((R)-3-[trans-4-((9-Carboxynonadecanoylamino]methyl)cyclohexylcarbonylamino]3-carboxypropionylamino)ethoxy)ethoxy]acetylamino)ethoxy]ethoxy)acetyl][Aib8, Glu22, Gln34]GLP-1-(7-37)
B4: N-epsilon30{2-[2-(2-{2-[2-((S)-3-carboxy-3-{[1-(19-carboxynonadecanoyl)piperidine-4-carbonyl]amino}propionylamino)ethoxy]ethoxy}acetylamino)ethoxy]ethoxy}acetyl … (peptide)
peptide: H[Aib]EGTFTSDVSSYLEEQAAREFIKWLVKGRG
modifications: not fully specified (residue 24); printed as N-epsilon30{2-[2-(2-{2-[2-((S)-3-carboxy-3-{[1-(19-carboxynonadecanoyl)piperidine-4-carbonyl]amino}propionylamino)ethoxy]ethoxy}acetylamino)ethoxy]ethoxy}acetyl [Aib8,Glu22,Arg26,Lys30]GLP-1-(7-37)
B5: N-epsilon31-(2-{2-[2-(2-{2-[2-((S)-3-Carboxy-3-{[1-(19-carboxy-nonadecanoyl)piperidine-4-carbonyl]amino}propionylamino)ethoxy]ethoxy}acetylamino)ethoxy]ethoxy}a … (peptide)
peptide: H[Aib]EGTFTSDVSSYLEEQAAREFIAKLVRGRG
modifications: not fully specified (residue 25); printed as N-epsilon31-(2-{2-[2-(2-{2-[2-((S)-3-Carboxy-3-{[1-(19-carboxy-nonadecanoyl)piperidine-4-carbonyl]amino}propionylamino)ethoxy]ethoxy}acetylamino)ethoxy]ethoxy}acetyl)[Aib8,Glu22,Arg26,Lys31,Arg34]GLP-1-(7-37)
B6: N-epsilon31{2-[2-(2-{2-[2-((S)-3-carboxy-3-{[1-(19-carboxynonadecanoyl)piperidine-4-carbonyl]amino}propionylamino)ethoxy]ethoxy}acetylamino)ethoxy]ethoxy}acetyl … (peptide)
peptide: H[Aib]EGTFTSDVSSYLEEQAAREFIAKLVKGRG
modifications: not fully specified (residue 25); printed as N-epsilon31{2-[2-(2-{2-[2-((S)-3-carboxy-3-{[1-(19-carboxynonadecanoyl)piperidine-4-carbonyl]amino}propionylamino)ethoxy]ethoxy}acetylamino)ethoxy]ethoxy}acetyl [Aib8, Glu22, Arg26,Lys 31]GLP-1-(7-37)
B7: N-epsilon … (peptide)
peptide: H[Aib]EGTFTSDVSKYLE[Aib]QAAREFIAWLVR[Aib]RG
modifications: not fully specified (residue 12); printed as N-epsilon 18-[2-(2-[2-(2-[2-(2-((R)-3-[trans-4-((9-Carboxynonadecanoylamino]methyl)cyclohexylcarbonylamino]3-carboxypropionylamino)ethoxy)ethoxy]acetylamino)ethoxy]ethoxy)acetyl][Aib8, 22,35, Lys18, Arg26,34]GLP-1-(7-37)
B8: N-epsilon … (peptide)
peptide: HAEGTFTSDVSKYLEEQAAKEFIAWLVQGRG
modifications: not fully specified; Aib8; Lys18 N-epsilon carries the acyl side chain printed in the name
B9: N-ε^20({2-[2-(2-{2-[2-((R)-3-carboxy-3-{[1-(17-carboxyheptadecanoyl)piperidine-4-carbon yl]amino}propionylamino)ethoxy]ethoxy}acetylamino)ethoxy]ethoxy}acetyl) … (peptide)
peptide: H[Aib]EGTFTSDVSSYK([AEEA-AEEA-d(βAsp)-Inp-C18 diacid])EGQAARE[2Nal]IEWLVKGRG-NH2
B10: N-ε^20({2-[2-(2-{2-[2-((R)-3-carboxy-3-{[1-(17-carboxyheptadecanoyl)piperidine-4-carbon yl]amino}propionylamino)ethoxy]ethoxy}acetylamino)ethoxy]ethoxy}acetyl) … (peptide)
peptide: H[Aib]EGT[2Nal]TSDVSSYK([AEEA-AEEA-d(βAsp)-Inp-C18 diacid])EGQAAREFIEWLVKGRG-NH2

What follows are binders tested against T1, human serum albumin (HSA) (human, UniProt P02768 25-609, biotinylated) (assay: competition SPA on biotinylated HSA, 125I acylated GLP-1 tracer;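 note: streptavidin SPA beads carrying biotinylated HSA, competition incubated 20 h at room temperature, plates then read on a TopCount counter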).
T1 construct: also called biotinylated HSA
Procedure: Streptavidin-SPA beads (GE Healthcare RPNQ0009) were incubated with biotinylated HSA for 5 hours. The beads were washed with buffer to remove unbound HSA. […] After 20 hours of gentle rocking at room temperature the plates were centrifuged and counted on a TopCounter.
For B1, the EC50 was 1 to 100 nM.
B2 gave an EC50 of 1 to 100 nM.
Binder B3 has an EC50 of 100 to 150 nM.
B4 gave an EC50 of 150 to 300 nM.
B5 was tested, and the EC50 was 150 to 300 nM.
Work on B6 yielded an EC50 of 100 to 150 nM.
Work on B7 yielded an EC50 of 800 to 2000 nM.
B8 was tested, and the EC50 was 800 to 2000 nM.
Binder B9 has an EC50 of 800 to 2000 nM.
B10 was tested, and the EC50 was 150 to 300 nM.
